Target: the molecule itself
Assay: SEC; supernatant (500 µl) of transfected HEK293T cells with FLAG-tagged Otolin on Superdex 200 HR 10/30 in PBS; fractions immunoblotted with anti-FLAG M2

B1: C-terminal FLAG-tagged Otolin (natural protein, mouse, UniProt Q4ZJM7 24-482, looked up)
chain: KTTPYTKFTKKSEGKEMLKGLKPSSGFFLDGEETVHTETAAMAEPTTGSPALAMAESTAGPSASATTRLLPFESFSLDTTGFVLNCCHCCSFVTGQKGEPGKMGKQGPKGETGDTGSPGHPGTTGPQGPKGQKGEKGLKGDRGDQGAGGIPGYPGKPGEQGALGPKGDKGTIGPAGTKGQKGSKGELCGNGTKGEKGDPGASGAHGFIGEPGAKGEKGGVGEKGYRGDLGERGEKGQKGEKGMEGEKGSRGDVGSEGKRGSDGLPGLRGDSGPKGEKGEIGSPGFTGPAGPKGELGSKGVRGPTGKKGSRGVKGSKGEATQVPQSAFSALLSKPFPPPNVPIKFDKILSNDQGDYSPVTGKFNCSVPGTYIFSYHVTVRGRPARISLVARNRKQFKSRETLYGQQVDQASLLLILKLSAGDQVWLEVSKDWNGLYVGPEDDSIFSGFLLYPEETFSKSP
modifications: hydroxyproline at Pro-141, 144, 174, 177, 180, 222, 234, 288 and 306; Lys-189 and Lys-315 hydroxylated and glycosylated with a glucosyl-galactosyl group (mass spectrometry of purified recombinant Otolin)
notes: Otolin, mouse, GenBank DQ002405; entire coding region (482 amino acids, own signal peptide) cloned and expressed; the secreted protein was collected from the medium; also called otolin-FLAG; recombinant Otolin; source: HEK293T, transiently transfected; not shown: FLAG, C-terminal, kept
B1: binds.

Source: publication PMC2939893, “Mammalian Otolin: A Multimeric Glycoprotein Specific to the Inner Ear that Interacts with Otoconial Matrix Protein Otoconin-90 and Cerebellin-1” (PLoS ONE, 2010)
